Reference: the Immune Epitope Database (IEDB)
Each block holds one sequence with its values, some of them ahead of it.

Key:
HLA-B*18:01 = experiment: IEDB peptide-MHC binding, purified MHC/competitive/radioactivity; filed as Kd, often an IC50 or EC50 that approximates it; ≥ and ≤ were set here for values at or beyond the usual limits of such assays
HLA-B*40:01 [1] = experiment: as above
HLA-B*40:02 = experiment: as above
HLA-B*44:02 [2] = experiment: as above
HLA-B*44:03 = experiment: as above
HLA-B*45:01 = experiment: as above
HLA-A*01:01 = experiment: IEDB peptide-MHC binding, purified MHC/direct/fluorescence; filed as Kd, often an IC50 or EC50 that approximates it; ≥ and ≤ were set here for values at or beyond the usual limits of such assays
HLA-A*02:01 [3] = experiment: as above
HLA-A*03:01 [4] = experiment: as above
HLA-A*11:01 [5] = experiment: as above
HLA-A*26:01 [6] = experiment: as above
HLA-A*31:01 = experiment: as above
HLA-A*69:01 = experiment: as above
HLA-B*07:02 [7] = experiment: as above
HLA-B*08:01 = experiment: as above
HLA-B*15:01 [8] = experiment: as above
HLA-B*27:05 = experiment: as above
HLA-B*40:01 [9] = experiment: as above
HLA-B*44:02 [10] = experiment: as above; settings: source organism: Salmonella enterica
HLA-B*58:01 = experiment: as above
HLA-A*11:01 [11] = experiment: IEDB peptide-MHC binding, purified MHC/competitive/fluorescence; ≥ and ≤ were set here for values at or beyond the usual limits of such assays
HLA-B*07:02 [12] = experiment: IEDB peptide-MHC binding, purified MHC/competitive/radioactivity; filed as Kd, often an IC50 or EC50 that approximates it; ≥ and ≤ were set here for values at or beyond the usual limits of such assays
HLA-B*35:01 = experiment: as above
HLA-B*51:01 = experiment: as above
HLA-B*53:01 = experiment: as above; settings: source organism: Dengue virus 1 Brazil/97-11/1997
HLA-A*02:01 [13] = experiment: IEDB peptide-MHC binding, purified MHC/competitive/fluorescence; ≥ and ≤ were set here for values at or beyond the usual limits of such assays; settings: source organism: Zaire ebolavirus
HLA-A*24:02 = experiment: as above; settings: source organism: Zaire ebolavirus
HLA-B*39:01 = experiment: IEDB peptide-MHC binding, purified MHC/competitive/fluorescence; filed as Kd, often an IC50 or EC50 that approximates it; ≥ and ≤ were set here for values at or beyond the usual limits of such assays; settings: source organism: Pseudomonas aeruginosa PAO1
HLA-A*03:01 [14] = experiment: as above; settings: source organism: Yersinia bercovieri ATCC 43970
HLA-A*26:01 [15] = experiment: as above; settings: source organism: Yersinia bercovieri ATCC 43970
HLA-B*15:01 [16] = experiment: as above; settings: source organism: Yersinia bercovieri ATCC 43970
[17] = source organism: Mammarenavirus machupoense
[18] = source organism: Salmonella enterica
[19] = source organism: Zaire ebolavirus
[20] = source organism: Dengue virus 1 Brazil/97-11/1997
[21] = source organism: Pseudomonas aeruginosa
[22] = source organism: Mammarenavirus lassaense
[23] = source organism: Dengue virus 3 Martinique/1243/1999
[24] = source organism: Dengue virus 2 Jamaica/1409/1983

Sequence: EEPAALLPLS
- Kd (HLA-B*18:01; [17]): 11.5 µM
- Kd (HLA-B*40:01 [1]; [17]): 12 µM
- Kd (HLA-B*40:02; [17]): 859 nM
- Kd (HLA-B*44:02 [2]; [17]): 3.41 µM
- Kd (HLA-B*44:03; [17]): ≥ 20 µM
- Kd (HLA-B*45:01; [17]): 0.211 µM

Sequence: EEQTDPKTL
- Kd (HLA-A*01:01; [18]): ≥ 20 µM
- Kd (HLA-A*02:01 [3]; [18]): ≥ 20 µM
- Kd (HLA-A*03:01 [4]; [18]): ≥ 20 µM
- Kd (HLA-A*11:01 [5]; [18]): ≥ 20 µM
- Kd (HLA-A*26:01 [6]; [18]): ≥ 20 µM
- Kd (HLA-A*31:01; [18]): ≥ 20 µM
- Kd (HLA-A*69:01; [18]): ≥ 20 µM
- Kd (HLA-B*07:02 [7]; [18]): ≥ 20 µM
- Kd (HLA-B*08:01; [18]): ≥ 20 µM
- Kd (HLA-B*15:01 [8]; [18]): ≥ 20 µM
- Kd (HLA-B*27:05; [18]): ≥ 20 µM
- Kd (HLA-B*40:01 [9]; [18]): 7330 nM
- Kd (HLA-B*44:02 [10]): ≥ 20 µM
- Kd (HLA-B*58:01; [18]): ≥ 20 µM

Sequence: EESASSGKL
- IC50 (HLA-A*11:01 [11]; [19]): ≥ 214 µM

Sequence: FPLCLSTTSQ
- Kd (HLA-B*07:02 [12]; [20]): 179 nM
- Kd (HLA-B*35:01; [20]): 514 nM
- Kd (HLA-B*51:01; [20]): ≥ 39.6 µM
- Kd (HLA-B*53:01): 36.3 nM

Sequence: FSRENSLSGV
- Kd (HLA-B*51:01; [20]): 7.58 µM

- Kd (HLA-A*01:01; [21]): ≥ 20 µM
- Kd (HLA-A*02:01 [3]; [21]): ≥ 20 µM
- Kd (HLA-A*03:01 [4]; [21]): ≥ 20 µM
- Kd (HLA-A*11:01 [5]; [21]): ≥ 20 µM
- Kd (HLA-A*26:01 [6]; [21]): ≥ 20 µM
- Kd (HLA-A*31:01; [21]): ≥ 20 µM
- Kd (HLA-A*69:01; [21]): ≥ 20 µM
- Kd (HLA-B*07:02 [7]; [21]): ≥ 20 µM
- Kd (HLA-B*08:01; [21]): ≥ 20 µM
- Kd (HLA-B*15:01 [8]; [21]): ≥ 20 µM
- Kd (HLA-B*27:05; [21]): ≥ 20 µM
- Kd (HLA-B*40:01 [9]; [21]): 2590 nM
- Kd (HLA-B*58:01; [21]): ≥ 20 µM
Sequence: GEDDDMLPW

Sequence: HDLMKQKCL
- Kd (HLA-B*18:01; [22]): ≥ 77.5 µM
- Kd (HLA-B*40:01 [1]; [22]): ≥ 40 µM
- Kd (HLA-B*40:02; [22]): 1570 nM
- Kd (HLA-B*44:02 [2]; [22]): ≥ 77.9 µM
- Kd (HLA-B*44:03; [22]): ≥ 78.1 µM
- Kd (HLA-B*45:01; [22]): 19.1 µM

Sequence: IALDLVTEI
- Kd (HLA-B*51:01; [23]): 0.00152 µM

Sequence: KACLEKVQR
- IC50 (HLA-A*11:01 [11]; [19]): ≥ 188 µM

Sequence: KDESIFINK
- IC50 (HLA-A*11:01 [11]; source organism: Vaccinia virus Copenhagen): ≥ 82.6 µM

Sequence: KPEGKVIDL
- Kd (HLA-B*07:02 [12]; [20]): 496 nM

Sequence: LALGCYSQV
- Kd (HLA-B*51:01; [20]): 0.567 µM

Sequence: LILCVTQVLM
- Kd (HLA-B*35:01; [24]): 14200 nM

Sequence: LPDTIETLML
- Kd (HLA-B*35:01; [20]): 578 nM
- Kd (HLA-B*51:01; [20]): 19.3 µM
- Kd (HLA-B*53:01): 297 nM

Sequence: LPVWLAYKVA
- Kd (HLA-B*35:01; source organism: Dengue virus 2 Peru/IQT2913/1996): 5090 nM

Sequence: MGLDKGWPI
- Kd (HLA-B*51:01; [20]): ≥ 44.7 µM

Sequence: MGVTGILQL
- IC50 (HLA-A*02:01 [13]): 52.9 µM
- IC50 (HLA-A*11:01 [11]; [19]): ≥ 73.8 µM
- IC50 (HLA-A*24:02): ≥ 85.2 µM

Sequence: RVLSLIGLK
- IC50 (HLA-A*11:01 [11]; source organism: West Nile virus): 0.334 µM

- Kd (HLA-A*01:01; [21]): ≥ 20 µM
- Kd (HLA-A*02:01 [3]; [21]): ≥ 20 µM
- Kd (HLA-A*03:01 [4]; [21]): ≥ 20 µM
- Kd (HLA-A*11:01 [5]; [21]): ≥ 20 µM
- Kd (HLA-A*26:01 [6]; [21]): ≥ 20 µM
- Kd (HLA-A*31:01; [21]): ≥ 20 µM
- Kd (HLA-A*69:01; [21]): ≥ 20 µM
- Kd (HLA-B*07:02 [7]; [21]): ≥ 20 µM
- Kd (HLA-B*08:01; [21]): ≥ 20 µM
- Kd (HLA-B*15:01 [8]; [21]): ≥ 20 µM
- Kd (HLA-B*27:05; [21]): ≥ 20 µM
- Kd (HLA-B*40:01 [9]; [21]): 19.6 nM
- Kd (HLA-B*58:01; [21]): ≥ 20 µM
- Kd (HLA-B*39:01): ≥ 20 µM
Sequence: SEYKAAGYL

Sequence: SPSKLASAIQ
- Kd (HLA-B*07:02 [12]; [24]): 436 nM

Sequence: SPSPTVEESR
- Kd (HLA-B*07:02 [12]; [23]): 3710 nM

Sequence: TPRSMPGTRR
- Kd (HLA-B*07:02 [12]; [23]): 1140 nM

Sequence: TPSMTMRCVG
- Kd (HLA-B*07:02 [12]; [23]): 48 nM

Sequence: TPTWNRKELL
- Kd (HLA-B*07:02 [12]; [23]): 18.2 nM

Sequence: YIYDTAFKY
- Kd (HLA-A*03:01 [14]): 3.83 µM
- Kd (HLA-A*26:01 [15]): 264 nM
- Kd (HLA-B*15:01 [16]): 173 nM
